Measured values as given in the supplement of paper PMC10201428.
± gives the standard deviation of the averaged measurements.

Key:
[1] = system: VchCAST RNA-guided transposition machinery (E. coli BL21(DE3) host, lacZ target); test: relative integration efficiency (T-RL orientation) vs wild-type transposon end (log2 (normalized fold change)); transposon end mutated: right end (5 bp flank + 75 bp right end); higher = more efficient transposition
How it was run: (§1)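 Relative integration efficiency is a fold change of output over input barcode abundance, normalised to reference barcodes and log-transformed. Input plasmids and genomic integration junctions were PCR-amplified and Illumina-sequenced from E. coli BL21(DE3) co-transformed with a T7-driven effector plasmid and pUC57 donor pools of 1549 left-end or 1849 right-end transposon variants. Plating was done with 0.1 mM IPTG at 37°C for 18 h, with two biological output replicates and four reference barcodes.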

[2] = system: VchCAST RNA-guided transposition machinery (E. coli BL21(DE3) host, lacZ target); test: relative integration efficiency (T-LR orientation) vs wild-type transposon end (log2 (normalized fold change)); transposon end mutated: right end (5 bp flank + 75 bp right end); higher = more efficient transposition
How it was run: as §1

Row | Sequence | relative integration efficiency (log2) [1] | relative integration efficiency (log2) [2]
1 | ACATTTGTTGATACAACCATAAAATGATAATTACCACCCATAAATTGATAATTATCACACCCATTTAACTATAACGCTCTGATCATAGTCAGACCAACATTGCTACGACCCGTATTCGCACCGACAC | -0.999 ± 0.21 | 1.69 ± 0.051
2 | ACATTTGTTGATACAACCATAAAATGATAATTACCACCCATACATTGATAATTATCACACCCATTTAACTATAACGCTCTGATCATAGTCAGACCAACATTGCTACGACCCGTATTCGCACCGACAC | -2.43 ± 0.1 | 0.106 ± 0.04
3 | ACATTTGTTGATACAACCATAAAATGATAATTACCACCCCTAAATTGATAATTATCACACCCATTTAACTATAACGCTCTGATCATAGTCAGACCAACATTGCTACGACCCGTATTCGCACCGACAC | -3.13 ± 0.18 | -0.321 ± 0.18
4 | ACATTTGTTGATACAACCATAAAATGATAATTACCACCCCTACATTGATAATTATCACACCCATTTAACTATAACGCTCTGATCATAGTCAGACCAACATTGCTACGACCCGTATTCGCACCGACAC | -3.12 ± 0.17 | -0.0894 ± 0.12
5 | ACATTTGTTGATACAACCATAAAATGATAATTACCCCCATAAATTGATAATAATGACACCGAATTTAACTATAACGCTCTGATCATAGTCAGACCAACATTGCTACGACCCGTATTCGCACCGACAC | -1.7 ± 0.48 | 1.94 ± 0.1
6 | ACATTTGTTGATACAACCATAAAATGATAATTACCCCCATAAATTGATAATGATGACACCGAATTTAACTATAACGCTCTGATCATAGTCAGACCAACATTGCTACGACCCGTATTCGCACCGACAC | -1.63 ± 0.46 | 2.16 ± 0.067
7 | ACATTTGTTGATACAACCATAAAATGATAATTACCCCCATAAATTGATAATTATCACACCCCATTTAACTATAACGCTCTGATCATAGTCAGACCAACATTGCTACGACCCGTATTCGCACCGACAC | -0.917 ± 0.1 | 2.089 ± 0.0067
8 | ACATTTGTTGATACAACCATAAAATGATAATTACCCCCATAAATTGATAATTATCCCACCCAATTTAACTATAACGCTCTGATCATAGTCAGACCAACATTGCTACGACCCGTATTCGCACCGACAC | -1.15 ± 0.18 | 2.06 ± 0.12
9 | ACATTTGTTGATACAACCATAAAATGATAATTACCCCCATAAATTGATAATTATCCCACCCCATTTAACTATAACGCTCTGATCATAGTCAGACCAACATTGCTACGACCCGTATTCGCACCGACAC | -1.32 ± 0.25 | 1.82 ± 0.11
10 | ACATTTGTTGATACAACCATAAAATGATAATTACCCCCATAAATTGATAATTGTGACACCGAATTTAACTATAACGCTCTGATCATAGTCAGACCAACATTGCTACGACCCGTATTCGCACCGACAC | -1.79 ± 0.38 | 1.94 ± 0.097
11 | ACATTTGTTGATACAACCATAAAATGATAATTACCCCCATCAATTGATAATTATCACACCCAATTTAACTATAACGCTCTGATCATAGTCAGACCAACATTGCTACGACCCGTATTCGCACCGACAC | -2.23 ± 0.41 | 0.506 ± 0.048
12 | ACATTTGTTGATACAACCATAAAATGATAATTACCCCCATCAATTGATAATTATCACACCCCATTTAACTATAACGCTCTGATCATAGTCAGACCAACATTGCTACGACCCGTATTCGCACCGACAC | -2.27 ± 0.37 | 0.526 ± 0.33
13 | ACATTTGTTGATACAACCATAAAATGATAATTACCCCCATCAATTGATAATTATCCCACCCAATTTAACTATAACGCTCTGATCATAGTCAGACCAACATTGCTACGACCCGTATTCGCACCGACAC | -2.38 ± 0.22 | 0.511 ± 0.036
14 | ACATTTGTTGATACAACCATAAAATGATAATTACCCCCATCAATTGATAATTATCCCACCCCATTTAACTATAACGCTCTGATCATAGTCAGACCAACATTGCTACGACCCGTATTCGCACCGACAC | -2.78 ± 0.51 | 0.417 ± 0.32
15 | ACATTTGTTGATACAACCATAAAATGATAATTACTCTGACACCCATAAATTGATAATTATCACACCCATAAATTGATATTGCTCATAGTCAGACCAACATTGCTACGACCCGTATTCGCACCGACAC | -2.73 ± 0.083 | 0.8247 ± 0.0022
16 | ACATTTGTTGATACAACCATAAAATGATAATTACTCTGACACCCATAAATTGATAATTATCAGTGGGTATTTAACTATAACGTCATAGTCAGACCAACATTGCTACGACCCGTATTCGCACCGACAC | -2.06 ± 0.27 | 1.33 ± 0.1
17 | ACATTTGTTGATACAACCATAAAATGATAATTACTCTGATCACCCATAAATTGATAATTATCACACCCATAAATTGATATTGCCATAGTCAGACCAACATTGCTACGACCCGTATTCGCACCGACAC | -4.39 ± 0.071 | 0.359 ± 0.11
18 | ACATTTGTTGATACAACCATAAAATGATAATTACTCTGATCACCCATAAATTGATAATTATCAGTGGGTATTTAACTATAACGCATAGTCAGACCAACATTGCTACGACCCGTATTCGCACCGACAC | -2.48 ± 0.42 | 0.977 ± 0.086

Row | Sequence | relative integration efficiency (log2) [1] | relative integration efficiency (log2) [2]
19 | ACATTTGTTGATACAACCATAAAATGATAATTACTCTGATCATAGTCACACCCATAAATTGATAATTATCACACCCATAAATTGATATTGCGACCAACATTGCTACGACCCGTATTCGCACCGACAC | -4.9525 ± 0.00028 | -1.68 ± 0.39
20 | ACATTTGTTGATACAACCATAAAATGATAATTACTCTGATCATAGTCACACCCATAAATTGATAATTATCAGTGGGTATTTAACTATAACGGACCAACATTGCTACGACCCGTATTCGCACCGACAC | -3.34 ± 0.27 | -0.9229 ± 0.0035
21 | ACATTTGTTGATACAACCATAAAATGATAATTACTCTGATCATAGTCAGACACCCATAAATTGATAATTATCACACCCATAAATTGATATTGCCCAACATTGCTACGACCCGTATTCGCACCGACAC | -3.73 ± 0.17 | -0.838 ± 0.091
22 | ACATTTGTTGATACAACCATAAAATGATAATTACTCTGATCATAGTCAGACACCCATAAATTGATAATTATCAGTGGGTATTTAACTATAACGCCAACATTGCTACGACCCGTATTCGCACCGACAC | -1.71 ± 0.23 | 1.66 ± 0.32
23 | ACATTTGTTGATACAACCATAAAATGATAATTACTCTGATCATAGTCAGACCAACATTCACCCATAAATTGATAATTATCACACCCATAAATTGATATTGCGCTACGACCCGTATTCGCACCGACAC | -4.53 ± 0.13 | -2.04 ± 0.32
24 | ACATTTGTTGATACAACCATAAAATGATAATTACTCTGATCATAGTCAGACCAACATTCACCCATAAATTGATAATTATCAGTGGGTATTTAACTATAACGGCTACGACCCGTATTCGCACCGACAC | -3.1 ± 0.26 | -0.137 ± 0.076
25 | ACATTTGTTGATACAACCATAAAATGATAATTACTCTGATCATAGTCAGACCAACATTGCTACCACCCATAAATTGATAATTATCACACCCATAAATTGATATTGCGACCCGTATTCGCACCGACAC | -3.63 ± 0.078 | -0.553 ± 0.016
26 | ACATTTGTTGATACAACCATAAAATGATAATTACTCTGATCATAGTCAGACCAACATTGCTACCACCCATAAATTGATAATTATCAGTGGGTATTTAACTATAACGGACCCGTATTCGCACCGACAC | -1.54 ± 0.53 | 1.601 ± 0.014
27 | ACATTTGTTGATACAACCATAAAATGATAATTACTCTGATCATAGTCAGACCAACATTGCTACGACCCCACCCATAAATTGATAATTATCACACCCATAAATTGATATTGCGTATTCGCACCGACAC | -3.23 ± 0.04 | -0.249 ± 0.18
28 | ACATTTGTTGATACAACCATAAAATGATAATTACTCTGATCATAGTCAGACCAACATTGCTACGACCCCACCCATAAATTGATAATTATCAGTGGGTATTTAACTATAACGGTATTCGCACCGACAC | -2.938 ± 0.018 | -0.154 ± 0.0093
29 | ACATTTGTTGATACAACCATAAAATGATAATTACTCTGATCATAGTCAGACCAACATTGCTACGACCCGTATTCACCCATAAATTGATAATTATCACACCCATAAATTGATATTGCCGCACCGACAC | -3.12 ± 0.47 | 0.261 ± 0.085
30 | ACATTTGTTGATACAACCATAAAATGATAATTACTCTGATCATAGTCAGACCAACATTGCTACGACCCGTATTCACCCATAAATTGATAATTATCAGTGGGTATTTAACTATAACGCGCACCGACAC | -2.15 ± 0.4 | 1.08 ± 0.33
31 | ACATTTGTTGATACAACCATAAAATGATAATTACTCTGATCATAGTCAGACCAACATTGCTACGACCCGTATTCGCACCACCCATAAATTGATAATTATCACACCCATAAATTGATATTGCCGACAC | -2.767 ± 0.019 | -0.66 ± 0.24
32 | ACATTTGTTGATACAACCATAAAATGATAATTACTCTGATCATAGTCAGACCAACATTGCTACGACCCGTATTCGCACCACCCATAAATTGATAATTATCAGTGGGTATTTAACTATAACGCGACAC | -2.38 ± 0.56 | 1.01 ± 0.035
33 | ACATTTGTTGATACAACCATAAAATGATAATTACTCTGATCATAGTCAGACCAACATTGCTACGACCCGTATTCGCACCGACACAACGACTATATTTACACCCATAAATTGATAATTATCAGTGGGT | -1.358 ± 0.0083 | 1.81 ± 0.28
34 | ACATTTGTTGATACAACCATAAAATGATAATTACTCTGATCATAGTCAGACCAACATTGCTACGACCCGTATTCGCACCGACACAACGACTATATTTATGGGTCACCCATAAATTGATAATTATCAG | -1.52 ± 0.14 | 1.36 ± 0.37
35 | ACATTTGTTGATACAACCATAAAATGATAATTACTCTGATCATAGTCAGACCAACATTGCTACGACCCGTATTCGCACCGACACAACGACTATCACCCATAAATTGATAATTATCAGTGGGTATTTA | -1.16 ± 0.15 | 2.166 ± 0.019
